The values below come from the nanobody polyreactivity screen of Harvey et al. (2022).

This data set in a line: yeast display, Sf9 membrane polyspecificity reagent, FACS + sequencing; frameworks hold sequencing errors. Put shortly: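 Synthetic nanobody libraries on Saccharomyces cerevisiae BJ5465 were galactose-induced for 36–48 hours, stained 1 hour at 4 °C with 10% biotinylated, detergent-solubilized Sf9 membrane reagent and enriched on streptavidin microbeads. FACS then separated cells into low and high (top ~1%) gates by anti-HA (expression) and streptavidin (reagent binding) fluorescence. Genes were colony-PCR amplified, MiSeq 2 × 250 sequenced and CDR-length filtered. A clone's polyreactivity label is that of its gate of origin.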
As for “QVQLVESGGGLVQAGGSLRLSCAASGYTFSDNAMGWYRQAPGKERELVAAITSGVSTYYADSVKGRFTISRDNAKNTVYLQMNSQKPEDTAVYYCAKEVAVFADLYQGAPYGYWGQGTQVTVSS”, the “polyreactivity (PSR sort gate)” value is reported as “low polyreactivity”.

Turning to “QDQLVESGGGLVQAGGSLRLSCAASGSIFVYNTMGWYRQAPGKERELVAAISSSGGSTYYADSVKGRFTISRDNAKNTVYLQMNSLKPEDTAVYYCAAVNGYQYAPYYYNGYDFWGQGTQVTVSS”, the “polyreactivity (PSR sort gate)” value is “low polyreactivity”.

Take “QVQLVESGGGLVQAGRSLRLSCAASGSILSINGMGWYRQAPGKERELVATIDGSEGSTFYADSVKGRFTISRDNAKNTFYLQLNSVKPEDTAVYYCAAENFWQTKEYDYWGQGKQVTVSS”: the “polyreactivity (PSR sort gate)” value is recorded as “low polyreactivity”.

For the sequence “QVQLVESAGGLVQAGGSLRLSCAASGSNFAIYDMGWYRQAPGKEREFVADISIVGRKKYADSVKGRFTISRDNAKNTVYLQMNSLKPEDTAVYYCTDQDSRDRKFYWGYTRGHWGQGTQVTVSS”, the “polyreactivity (PSR sort gate)” value is given as “low polyreactivity”.

As to “QVQLVESGGGIVQAGGSLRLSCAASGFTFYRYAMGWYRQAPGKERELVAAITWSGGSTYYADSVKGRFTISRDNAKNTVYLQMNSLKPEDTAVYYCAADIYDGGFDYWGQGTQVTVSS”, the “polyreactivity (PSR sort gate)” value is reported as “low polyreactivity”.

For “QVQLVESGGCLVQAGGSLRLSCAASGSIFLFYAMGWYRHPPGKERELVAVIDTRASTTYYADSVKGRFTISRDNAKNTVYLQMNSLKPEDTAVYYCAAELQFTLYYSRPLLYQYYYWGQGTQVTVSS”, the “polyreactivity (PSR sort gate)” value is on record as “high polyreactivity”.

Take “QVQLVESGGGLVQAGGSLRLSCAASGSTFTSNAMGWYRQAPGKERELVAAISFSDASTYYADSVKGRFTISRDNAKNTVYLQMNSLKPEDTAVYYCAADSDQDAYDYWGQGTQVTVSS”: the “polyreactivity (PSR sort gate)” value is “low polyreactivity”.

With “QVQLVESGGGLVQAGGSLRLSCAASGRIFYTYAMGWYRTAPGKERELVAAISSRTGSTYYADSVKWRFTISRDNAKNTVYLQMNSLKPEDTAVYYCNAYRLRYGYDYWGQGTQVTVSS”, the “polyreactivity (PSR sort gate)” value is “high polyreactivity”.

Regarding “QVQLVESVGGLVQAGGILRLSSAASGRIFYFYAMGWYRQAPGKERELVAGINWNGGSTHYADSVKGRFTISRDNAKNTVYLQMNSLKPEDTAVYYCAADGYYGQYGGHMGYWGQGTQVTVSS”, the “polyreactivity (PSR sort gate)” value was “high polyreactivity”.

Take “QDQLVESGGGLVQAGGSLSLSCAASGSTFQPYTMGWYRQAPGKERELVAAITGRGGSTYYADSVKGRFTISRDNAKNTVYLQMNSLKPEDTAVYYCAAGAYRRNKSDYYYWGQGTQVTVSS”: the “polyreactivity (PSR sort gate)” value was “low polyreactivity”.

Take “QVQLVESGGGLVQAGGSLRLSCAASGSTFRKNAMGWYRQAPGKERELVASISISGGRTNYADSVKGRFTISRDNAKNTVYLQMNSLKPEDTAVYYCAAGYPWYQLPRPLEYYYWGQGTQVTVSS”: the “polyreactivity (PSR sort gate)” value is recorded as “high polyreactivity”.

For “QVQLVESAGGLVQAGGSLRLSCDASGSIFTTNAMGWYRQAPGKERELVAAITSTAGSTYYADSVKGRFKISRDNAKNTVYLQMNSLKPEDTAVYYCAATYNVGVKAWYDYWGQGSQVTVSS”, the “polyreactivity (PSR sort gate)” value is given as “high polyreactivity”.

With “QVQLVESGGGLVQAGGSLRLSCAASGSSFSHNVMGWYRQAPRKERELVATINWSGGSTYYADSVKGRFTISRDNAKKSDYLQMNSLKPEDTAVYYCAADRQITVYAYDYWGQGTQVTVSS”, the “polyreactivity (PSR sort gate)” value is on record as “low polyreactivity”.

In the case of “QVQLVESGGGLVQAGGSLRLSCAASGFIFDDNSMGWYRQAPGTEREFVAAISQGAGSTYYADSVKGRFTISRDTAKNTVNLQMNSLKPEDTAVYYCNNGRPKYWYGYKYDYWGHGTQVTVSS”, the “polyreactivity (PSR sort gate)” value was “low polyreactivity”.

For “QVQLVESGGGLVQAGGSLRLSCAASGSIFYYNAMGWYRQAPGKERELVATIRTSGGSTYYADSVKGRFTISRDNAKNTVYLQMNSLKPVDTAVYYCAARDLRKLYSRYPYYYWGQGTQVTVSS”, the “polyreactivity (PSR sort gate)” value is on record as “high polyreactivity”.

In the case of “QVQLVESGGGLVQAGGSLRLSCAASGITIPVYMGWYRQAPGKERELVASISTIGGTTYYADSVKGRFTISRDNAKNTVYLQMNSLKPEDTAVYYCAADHPWSWYDYWGQGTQVTVSS”, the “polyreactivity (PSR sort gate)” value is recorded as “low polyreactivity”.

For “QEQLQESGGGLVQAGGSLRLSCAASGSIFHLHIMCRYRQAPGKERESVAAISYGTSTYYADSVKGRFTICRDNAKNTVYLQMNSPKPDDTAVYYCAALFLVSKHHHYWGEGTQVTVSS”, the “polyreactivity (PSR sort gate)” value is “low polyreactivity”.

Consider “QGQLVESGGGLVQAGGSLRLSCAASGRTFKVYAMGWYRQAPGKERELVAAISFSGGSTYYADSVKGRFTISRDNAKNTVYLQMNSLKPEDTAVYYCATTYPGAIRDYWGQGTQVTVSS”, for which the “polyreactivity (PSR sort gate)” value is given as “high polyreactivity”.

Regarding “QVQLVESGGGLVQAGGSLRLSCAAFGSIFGYNAMGSYRQAPGKEREFVAAISWSGGRTYYADSVKGRFTISRDNAKNTVYLQMNSLKPEDTAVYYCAAPSRPAPRFDYWGQGTQVTVSS”, the “polyreactivity (PSR sort gate)” value was “low polyreactivity”.

As for “QVQLVESGGGLVQAGGSLRLSSAASGSTFKVNARGWYRQAPGKERELVAGITSSDSTKYADSVKGRFTISRDNAKNTVYLQMNSLKPEDTAVYYSAAETKFSRTSEGDYWGQGTQVTVSS”, the “polyreactivity (PSR sort gate)” value is listed as “low polyreactivity”.

For “QVQLVESGGGLVQAGGSLRLSCAASGGTFSKYAMGWYRQAPGKEREFVAAITVSGGGSYYADSVKGRFTISRDNAKNTVYLQMNSLKPEDTAVYYCAADLAWTASDYWGQGTQVTVSS”, the “polyreactivity (PSR sort gate)” value was “low polyreactivity”.

For the sequence “QVQLVESWGGLVQAGGSLRLSCAASGITLGYYSMGWYRQAPGKERELVAGISSSGDSTYYADSVKGRFTISRDNAKNSVYLQIKSLKPEDTAVYYCIADGWYFEYWGQGTQVTVSS”, the “polyreactivity (PSR sort gate)” value was “low polyreactivity”.

As to “QVQLVESGGGLVQAGGSLRLSCAASGSIIGRYTMGWYRQAPGKERELVAAISRSGGSTYYADSVKGRFTISRDNAKNTVYLQMNSLKPEDTAVYYCAKRTYTPRGERLYSSYDYWGQGTQVTVSS”, the “polyreactivity (PSR sort gate)” value is “high polyreactivity”.

For the sequence “QVQLVESGGGLVQAGGRLRLSCAASGSIFINNTMGWYRQAPGKERELVAAISITGGSTYYADSVKGRFTISRDNAKNTVYLQMNSLKPEDTAVYYCAADPLQLYDYNYWGQCTQVTVSS”, the “polyreactivity (PSR sort gate)” value is recorded as “low polyreactivity”.

With “HVQLVESGGGLVQAGGSLRLSCAASGFIIGYYAMGWYRQAPGKERELVASITWSTTSTYYADSVKGRFTISRDNAKNTVYLQMNSLKPEDTAVYYCAADLQSKLPSSIYIGDYWGQGTQVTVSS”, the “polyreactivity (PSR sort gate)” value is “low polyreactivity”.

“QVQLVESGGGLVQAGGSLRLSCAASGRTFYVYDMGWYRQAPGKERELVAVISSSGSTNYADSVKGRFTISRDNAKNTVYLQMNSLKPEDTAVYYCNRRRWYFFSLDYWGQGTQVTVSS”: the “polyreactivity (PSR sort gate)” value is recorded as “high polyreactivity”.

Regarding “QDQLVESGGGLVQAGGSLRLSCAASGFTFTRNAMGWYRQAPGKEREFVAAISVGGGRTYYADSVKGRFTISRDNAKNTVYLQMNSLKPEDTAVYYCNAYQGWRYDYWGPGTQVTVSS”, the “polyreactivity (PSR sort gate)” value is given as “high polyreactivity”.

For “QVQLVESGGGLVQAGGSLRLSCAASGFTSGYYAMGWYRQAPGKERELVAAISFSGDDTYYADSVKGRFTISRDNAKNTVYLQMNCLKPEVTAVYYCAAEYDLYFLDQGYWYVAFDYWGQGTQVTVSS”, the “polyreactivity (PSR sort gate)” value was “high polyreactivity”.

On to “QVQLVESGGGLVQAGGSLRLSCAASGRTFVSNAMGWYRQAPGKERELVAGINWTDDSTYYADSVKGRFTISRDNAKNTVYLQINSLKPEDTAVYYCAADSLEFAWPRFDYWGQGTQVTVSS”, for which the “polyreactivity (PSR sort gate)” value is “low polyreactivity”.

Regarding “QVQLVESGGGLVQAGGSLRLSCAASGSIFEIYDMGWYRQAPGKERELVASIRTSGGSTYYAESVKGRFTISRDNAKNTVYLLMNSLKPEDTAVYYCATGWSWYHPDYDYWGQGTQVTVSS”, the “polyreactivity (PSR sort gate)” value is listed as “low polyreactivity”.

On to “QVQLVESGGGLVQAGGSLRLSCAASGSIFLYYAMGWYRQAPGKERELVAAISGRAGSTYYADSVKGRFTISRDNAKNTVYLQMNSLKPEDTAVYYCAAGYWQGYPGFKYYWGQGTQVTVSS”, for which the “polyreactivity (PSR sort gate)” value is listed as “low polyreactivity”.

Regarding “QVQLQESGGRLVQAGGSLRLSCAATGTIFTERFMGWYRQAPGKERELVAVISPGTSTNYADSVKGRFTISRDNAKNTVYLQMNSLKPEDTAVYYCAADWSTGNTLPYWGQGTQVTVSS”, the “polyreactivity (PSR sort gate)” value is listed as “high polyreactivity”.

Consider “QVQLVESGGGLVQAGGSLRLSCAASGRILDYYAMGWYRQAPGKERELVAAIRRRGVITYADSVKGRFTISRDNAKNTVYLQMNSLKPEDTAVYYCAAGGYEYGYWGQGTQVTVSS”, for which the “polyreactivity (PSR sort gate)” value is “low polyreactivity”.

Turning to “QVQLVESGGGLVQAGGSLRLSCAASGRTIRRYAMGWYRQAPGKERELVAAITISGGSTYYADSVKGRFTISRDNAKNTVYLQMNSLKPEDTAVYYCAAQPWRALGYYYWGQGTQVTVSS”, the “polyreactivity (PSR sort gate)” value is on record as “high polyreactivity”.

As to “QVQLVEAGGGLVQAGGSLRLSCGASGFTFVYYAMGWYRQAPGKERELVAAISRSGGSTYYADSVKGRFTISRDNAKNTVYVQMNSLKPEDTAVYYCAARKNYGSRLSYEYWGQGTQVTVSS”, the “polyreactivity (PSR sort gate)” value is recorded as “high polyreactivity”.

For “QVQLVESAGGLVQAGGSLRLSCAASGFIFHRYAMGWYRQAPGKERELVAAITGRGSSTYYADSVKGRFTISRDNAKNTVYLQMNSLKPEDTAVYYCNAYRYQVYDTGWFGYWGQGTQVTVSS”, the “polyreactivity (PSR sort gate)” value is on record as “high polyreactivity”.

For the sequence “QVQLVESGGGLVQAGGSLRLSCAASGRTFGGYVMGWYIQAPGKERELVASISSSAGSTYYADSVKGRFTISRDNAKNTVYLQMNSLKTEDTAVYYCAKRSYNPYYRYYRYPYGYWGQGTQVTVSS”, the “polyreactivity (PSR sort gate)” value is “high polyreactivity”.

As for “QVQLVESGGCLVQAGGSLRLSCAASGSIFVYYAMGWYRQSPGKERELVAAISWSGGSTRYADSVKGRFTISRDNAKNTVYLQMNSLKPEDTAVYYCAAKRLGGGYWGQGTQVTVSS”, the “polyreactivity (PSR sort gate)” value is recorded as “high polyreactivity”.

Turning to “QVQLVESGGRLVQAGGILRLSCPASGSTFKKYAMGWYRQTPGKERELVASINSSAGSTYYADSVKGRFTISRDNAKNTVYLQMNSLKPEDTAVYYCATCQKVYSGRYDYWGQGTQVTVSS”, the “polyreactivity (PSR sort gate)” value is listed as “low polyreactivity”.

As for “QVQLVESGGGLVQAGGSLRLSCAASGSIFVYNAMGWYRQAPVKERELVAVITLRSGSTNYADSVKGRFTISRDNEKNTVYLQMNSLKPEDTAVYYCAADDTYHDYQRDTDDDYWGQGTQVTVSS”, the “polyreactivity (PSR sort gate)” value was “low polyreactivity”.

Take “PDQLVESGGGLVQAGGSLRLSCAASGFIFTYYAMGWYRQAPGKERELVAAITRRGGSTYYADSVKGRFTISRDNAKNTVYLQMNRLKPEDTAVYYCNKVDQGRYGYWGQGTQVTVSS”: the “polyreactivity (PSR sort gate)” value is recorded as “high polyreactivity”.
